From paper PMC12802151

Tests used:
[1] = molecular target: Beilong paramyxovirus (HMC isolate) receptor-binding protein, β-propeller head domain with C-terminal extension (BeiV(HMC)-RBPβ+) (Beilong paramyxovirus (BeiV), isolate from human mesangial cells (HMC)); test: crystal structure; BeiV(HMC)-RBPβ+ at 3.2 mg/mL, sitting-drop vapor diffusion at room temperature, 0.2 M potassium thiocyanate, 0.1 M sodium cacodylate pH 6.5, 8% poly-γ-glutamic acid polymer; 3.5 Å; a dimer in the asymmetric unit
[2] = molecular target: J paramyxovirus receptor-binding protein, β-propeller head domain with extended C-terminus (JPV-RBPβ+) (J paramyxovirus (JPV)); test: crystal structure; JPV-RBPβ+ at 3.5 mg/mL, sitting-drop vapor diffusion at room temperature, 0.1 M tris/bicine pH 8.5, 0.2 M ammonium sulfate, Morpheus precipitant mix 4; 2.2 Å; a dimer in the asymmetric unit

Row | Substance | stoichiometry N [1] | stoichiometry N [2]
1 | Beilong paramyxovirus (HMC isolate) receptor-binding protein, β-propeller head domain with C-terminal extension (BeiV(HMC)-RBPβ+) (domain or fragment) | 2 | 
2 | J paramyxovirus receptor-binding protein, β-propeller head domain with extended C-terminus (JPV-RBPβ+) (domain or fragment) |  | 2
